These results are taken from article PMC4577447.

The target of this assay is transcription elongation complex. Kind of assay: single-molecule fluorescence co-localization.

B1: GreB (natural protein)
chain: MKTPLVTREGYEKLKQELNYLWREERPEVTKKVTWAASLGDRSENADYQYNKKRLREIDRRVRYLTKCLENLKIVDYSPQQEGKVFFGAWVEIENDDGVTHRFRIVGYDEIFGRKDYISIDSPMARALLKKEVGDLAVVNTPAGEASWYVNAIEYVKP
modifications: fluorescent dye label: Cy3 (Figure 5) or Cy3B (Figure 6); position not stated
Regarding B1, the ka (apparent first-order association rate constant at 0.5 nM GreB) came to 0.0149 s⁻¹.
